This is an account of results in doi:10.1101/2022.03.25.485794 (bioRxiv, 2022).

Read-outs that look alike come from different tables or passages of the source.

Test in all cases: cryo-EM structure
Assay [1] deals with T1, E. coli [Cys541;Pro607]-σ^70 (E. coli, UniProt P00579 1-613, R541C | L607P).
The target of another assay is E. coli NusA (E. coli, UniProt P0AFF6 1-495).
Assay [2] has as its target T1, E. coli [Cys541;Pro607]-σ^70. The source holds these as a separate data set.

B1: wild-type Qλ (Q protein of bacteriophage λ) (natural protein, UniProt P03047 1-207, looked up)
chain: MRLESVAKFHSPKSPMMSDSPRATASDSLSGTDVMAAMGMAQSQAGFGMAAFCGKHELSQNDKQKAINYLMQFAHKVSGKYRGVAKLEGNTKAKVLQVLATFAYADYCRSAATPGARCRDCHGTGRAVDIAKTELWGRVVEKECGRCKGVGYSRMPASAAYRAVTMLIPNLTQPTWSRTVKPLYDALVVQCHKEESIADNILNAVTR
On to B1, for which the binding result (in assay [1]; in the assay with E. coli NusA) was “binds” throughout.

B2: Qλ^M1S (Q protein of bacteriophage λ, M1S derivative) (natural protein, UniProt P03047 1-207, looked up)
chain: SRLESVAKFHSPKSPMMSDSPRATASDSLSGTDVMAAMGMAQSQAGFGMAAFCGKHELSQNDKQKAINYLMQFAHKVSGKYRGVAKLEGNTKAKVLQVLATFAYADYCRSAATPGARCRDCHGTGRAVDIAKTELWGRVVEKECGRCKGVGYSRMPASAAYRAVTMLIPNLTQPTWSRTVKPLYDALVVQCHKEESIADNILNAVTR
In the case of B2, in assay [2], the binding result is “binds”.
